# “Also recorded” adds a separate entry of the source.
# B1: Lecanemabbs: humanized monoclonal, biosimilar of Lecanemab, Proteogenix (#PX-TA1746) and BioXCell (#BXC-SIM0032) (antibody, chains of the INN, looked up, V domains shown)
# VH: EVQLVESGGGLVQPGGSLRLSCSASGFTFSSFGMHWVRQAPGKGLEWVAYISSGSSTIYYGDTVKGRFTISRDNAKNSLFLQMSSLRAEDTAVYYCAREGGYYYGRSYYTMDYWGQGTTVTVSS
# VL: DVVMTQSPLSLPVTPGAPASISCRSSQSIVHSNGNTYLEWYLQKPGQSPKLLIYKVSNRFSGVPDRFSGSGSGTDFTLRISRVEAEDVGIYYCFQGSHVPPTFGPGTKLEIK
# modifications: biosimilar
# B2: Lecanemab: designed at Uppsala University, humanized by BioArctic, later licensed to Eisai (antibody, chains of the INN, looked up, V domains shown)
# VH: B1 VH
# VL: B1 VL
# Assays:
# [1] = Isoelectric point on CIEF immunoassay; assay type: physicochemical; details: Peggy Sue
# Method: (§1) Automated capillary isoelectric focusing immunoassays were performed with a Peggy-Sue system (ProteinSimple,San Jose, California, USA), essentially as previously described and [53].
# (§2) In brief, synthetic Aβ peptide variants were separated by isoelectric focusing in microcapillaries followed by photochemical immobilization to the inner capillary walls and probing with the primary antibodies for 120 min. After 2 washes, the horseradish peroxidase conjugated secondary antibodies were loaded and incubated for 60 min. After two washing steps, a luminol/peroxide mix was loaded, and chemiluminescent signals were recorded. The data was analyzed with the Compass for SW software. The following secondary antibodies were used: Anti-human IgG Secondary HRP antibody (Protein Simple, catalog number 043–491), Goat-Anti-Mouse-HRP Secondary Antibody ProteinSimple, catalog number 040–655) and Peroxidase-conjugated Affini Pure Donkey Anti-Human IgG (H+L) (1:100 dilution) (Jackson ImmunoResearch Laboratories Inc., West Grove, PA, code number 709–035-149).
# CAA fibrils = details: ref [38],[47]; cited from earlier work
# Excerpt: Despite extensive structural, genetic, and pre-clinical investigations, clinical trials of Aβ antibodies have yielded ambiguous outcomes. Aβ antibody binding to cerebral amyloid angiopathy (CAA) has been hypothesized to correlate with the frequency of amyloid-related imaging abnormalities with edema (ARIA-E) observed in patients treated with Aβ-based immunotherapies.
# [2] = system: amyloid precursor protein (APP770) residues 649–722; test: Peptide microarray epitope pre-screening (overlapping 15-mers); assay type: binding, human; details: 0.5–1 μg/mL antibody; for Array: epitope identified in this study on microarrays: Aβ residue numbers, 15-mer peptides overlapping by 14AAs on cellulose conjugates, chemiluminescence
# Method: Information regarding binding epitopes and /or immunogens for most of the tested Aβ-Abs has been published and is summarized in Table 1. However, the binding epitope information was derived from varying methodologies. To provide an initial side-by-side comparison we pre-screened all of the listed Aβ-Abs in array format using copies of peptide libraries and standard antibody concentrations of 0.5–1 μg/mL (Figure 1a). The library comprised the amyloid precursor protein (APP770) residues 649–722, corresponding to the canonical Aβ1–42 amino acid sequence with additional 23 amino terminal and 9 carboxy terminal residues. […] For optimal signal to noise ratios and ideal selectivity profiles on the microarrays, the Aβ-Ab concentrations were adjusted for 3D6, 82E1, 11H3, 80C2 and 7H3D6 (Figure 1 – figure- supplement 1) and (Appendix 1–7). […] Specifically, Donanemabbs, 2–48 and Aβ-pE3 were raised against AβpE3-x (Table 1) and were expected to show preference for Aβ peptides starting with a pE(3).
# Figure 1. Microarray workflow and Aβ-Ab epitope pre-screening. (a) Schematic of the microarray workflow. The library comprised the amyloid precursor protein (APP) residues 649–722 (APP770 numbering), corresponding to Aβ residues −23 to 51, as a library of 15-mer peptides overlapping by 14AAs, copied in dozens, and probed for Aβ-Abs binding followed by analysis in MARTin. (b) The epitope screening binding data are summarized as a heatmap. Blue and red shades indicate the relative binding strength of the related arrayed peptides to the left and cognate Aβ-Ab on top. The blue – red scale is visualizing the normalized binding intensity for each antibody individually. The applied antibody concentrations ranged between 0.5–1 μg/mL.
# The μSPOT assay was performed as previously described. […] Peptide arrays were synthesized using MultiPep RSi robot (CEM GmbH, Kamp-Lintford, Germany) on cellulose discs containing Fmoc-β-Ala linkers. Natural amino acid building blocks were purchased from IRIS (IRIS Biotech GmbH, Marktredwitz, Germany). Special building blocks employed in this study such as isomers, stereoisomers, phosphorylation and pyroglutamination […] modifications are listed here: Fmoc-L-Ser(PO(OBzl)OH)-OH (Iris – FAA1423), L-Pyroglutamic acid pentachlorophenyl ester (Novabiochem - 8.54203), Fmoc-L-Asp-OtBu (Iris – FAA1356), Fmoc-D-Asp-OtBu (Carbosolutions – CC05095) and Fmoc-D-Asp(tBu)-OH (Iris – FAA1309). Synthesis was carried out by deprotecting the Fmoc-group using 20% piperidine in dimethylformamide (DMF). Peptide chains were elongated using a coupling solution consisting of amino acids (0.5M) with oxyma (1M) and DIC (1M) in DMF (1:1:1). Coupling steps were carried out 3 times (30min), followed by capping (4% acetic anhydride in DMF). Discs were transferred into 96 deep-well plates for the work-up.
# AβpE3-x = test: PTM-Aβ microarray, pE3; assay type: binding, human; details: Donanemabbs 0,0012μg/mL, 2–48, Aβ-pE3, IC16 […], vs Aβ3-x with non-cyclized Glu
# Excerpt: Specific PTMs might be associated with different stages of AD progression and severity, offering potential biomarkers for diagnosis and prognosis. Targeting PTMs represents a potential therapeutic strategy to prevent Aβ aggregation and neurotoxicity, thereby slowing disease progression. […] Therefore, a selected group of PTM-carrying Aβ peptides (PTM-Aβ) were incorporated into the Aβ chip to explore the potential binding preference of selected Aβ-Abs, under optimized concentrations (Figure 3). The antibodies were tested with both PTM-Aβ and the corresponding unmodified variants to provide a head-to-head comparison. This screening was performed in the presence of Aβ phosphorylated at positions Ser(8) or Ser(26), N-terminal pE at position 3, racemization/isomerization of Asp at position 1, and unmodified N-terminal variants. The dataset is divided into sections (Figure 3 a–f) for enhanced visualization, where each antibody was screened simultaneously against all peptides to locate their epitope preferences. […] A set of antibodies without reported PTM preference was applied here as controls (refer to Table 1), namely 11H3, 101–1-1, IC16, 82E1 and 3D6.
# Figure 3. […] Blue and red shades indicate the binding strength over the related arrayed […] modified peptide shown on top and cognate anti-Aβ antibody to the left. […]
# Aβ = details: cited from earlier work
# synthetic Aβ peptides = test: Peptide Bicine-Tris SDS-PAGE/Western blot; assay type: binding; details: PVDF, 50 ng per peptide, 0.5 μg/mL antibody
# [3] = system: Aβ vascular and parenchymal deposits in AD brain sections; test: Immunohistochemistry on AD brain tissue with antibody pre-adsorption; set-up: species or system human
# Method: Immunohistochemistry was performed on 4-μm paraffin sections. In brief, brain sections were deparaffinized in Roticlear (Carl Roth, Karlsruhe, Germany) and rehydrated in a descending series of ethanol. Activity of endogenous peroxidases was blocked by incubation in 0.3% H2O2 in PBS for 30 min. […] Antibodies and peptides were incubated on a rotator for 3 h at room temperature and reaction tubes were centrifuged at 13000 rpm for 5 min at the end of the incubation period. Control conditions included antibodies in 0.01 M PBS including 10% FCS without synthetic peptides. Adjacent paraffin-embedded sections from a human AD case were incubated overnight with the supernatants and sections were washed with 0.01 M PBS including 0.1 % Tergitol. For detection, biotinylated anti-human antibodies (6 μg/ml, Jackson ImmunoResearch, West Grove, Pennsylvania, USA #109-065-003) were used and staining was visualized with the ABC method with a Vectastain kit (Vector Laboratories, Newark, California, USA), diaminobenzidine as a chromogen and counterstaining with hematoxylin.
# [4] = system: endogenous soluble Aβ in pooled human CSF; test: IP-MS from pooled human CSF; assay type: binding; details: 250 μL pooled human CSF, CHCA matrix; two replicate measurements each from two independent immunoprecipitations
# [5] = system: Aβ1–42 monomer, oligomer and fibril preparations; AβpE3–40; test: Bistris-SDS gradient PAGE/Western blot; assay type: binding; details: 4–12% Bistris SDS-PAGE/Western blot
# Method: No SPR-487B) (StressMarq biosciences, Victoria, BC, Canada). The samples for electrophoresis were prepared (starting from stock solutions) with final concentrations of 0.1 μg/μL) in LDS sample buffer (247.5 mM Tris-HCl, pH 8.5, 2% (w/v) lithium dodecyl sulfate (LDS), 10% (v/v) glycerol, 0.5 mM EDTA, 0.22 mM Brilliant Blue G250, 0.175 mM Phenol Red) and denatured by heating at 70°C for 10 min. […] The prechilled transfer buffer contained 25 mM Tris, 192 mM glycine, 20% (v/v) methanol and 0.0375 % Tween-20. After blotting, the membrane was washed for 10 min at room temperature in Tris-buffered saline (TBS) followed by blocking for 30 min with 5% powdered milk in TBS containing 0.1% Tween-20 (TBS-T). The blots were then incubated with primary antibodies in 5% milk in TBS-T over night at 4°C and washed 3 × for 10 min with TBS-T at room temperature. […] After 1 h incubation with the secondary antibodies, the blots were washed 3 × for 10 min with TBS-T and incubated for 5 min with ECL-Prime Western Blotting Detection Reagent (Cytiva Amersham, Little Chalfont, England). Images were recorded on a Vilber-Loumart Fusion SL blot imager. […] That way, the 4G8 reprobing signals were essentially added on top of the initial signals and background artifacts.
# [6] = system: synthetic Aβ peptide variants; test: Capillary isoelectric focusing (CIEF) immunoassay; assay type: binding; details: Peggy Sue, chemiluminescence
# Method: as §1, §2
# [7] = system: Alzheimer's disease patients; details: cited from earlier work
# [8] = Lecanemabbs #BXC-SIM0032, 0.06 μg with 0.25 μg peptide
molecule,measurement,setting,value
"Aβ1–40: synthetic Aβ peptide, AnaSpec",pI,[1],5.31
"Aβ1–42: synthetic Aβ peptide, AnaSpec; monomers, oligomers, fibrils from StressMarq",pI,[1],approx. 5.3
"Aβ−3–40: N-terminally elongated Aβ, provided by H.-J. Knölker, Technische Universität Dresden",pI,[1],6.04
"Donanemab: Eli Lilly's Donanemab, approved in the US as Kisunla [reference compound]",binding to CAA fibrils,CAA fibrils,binds to CAA fibrils in proportion to the amount of pyroglutamate-modified Aβ they present
same,Array: epitope identified in this study on microarrays,[2],3–10
same,binding in epitope pre-screening,"[2]; unmodified Aβ-related 15-mers, generic pre-screening conditions",produced detectable signals in this pre-screening with unmodified Aβ-related peptides
same,selectivity for / binding to AβpE3-x,AβpE3-x,cyclized AβpE3-x as the dominant binding determinant
same,reported selectivity for modified Aβ,"Aβ; ref [47],[64],[57],[14]",selective for AβpE3; also recorded: known to recognize Aβ starting with cyclized pE3
B1,Aβ variants detected on Bicine-Tris SDS-PAGE/Western blot,synthetic Aβ peptides,"recognized Aβ1–40, Aβ1–42, Aβ3–40 (pI approximately 5.97) Aβ-3–40 (aka. APP669–711),phosphorylated pSer8-Aβ1–40"
same,IHC immunoreactivity after pre-adsorption with Aβ1–42 fibrils,"[3]; Aducanumabbs 0.5 μg with 5 μg fibrils, Lecanemabbs (PX-TA1746) 0.06 μg with 0.25 μg, human AD brain, antibody for IHC: Aducanumabbs 0.5 μg/μl (so in the source)",efficiently blocked
same,IHC immunoreactivity after pre-adsorption with Aβ1–42 monomers,"[3]; Aducanumabbs 0.5 μg with 10 μg monomers, Lecanemabbs (PX-TA1746) 0.06 μg with 0.25 μg, human AD brain",efficiently blocked
same,IHC blocking by Aβ1–16 (BioXCell lot),[3]; [8],did not
same,IHC blocking by Aβ1–34 (BioXCell lot),[3]; [8],did not
same,IHC blocking by Aβ1–38 (BioXCell lot),[3]; [8],did not
same,IHC blocking by Aβ1–42 monomers (BioXCell lot),[3]; [8],completely blocked Lecanemabbs binding
same,IHC immunoreactivity after pre-adsorption with Aβ1–42 oligomers,"[3]; Lecanemabbs (PX-TA1746) 0.06 μg with 0.25 μg oligomers, human AD brain",efficiently blocked
same,immunoprecipitation of endogenous Aβ from CSF,[4],"immunoprecipitated authentic biological Aβ peptides from pooled human CSF; also recorded: Aβ1–40, Aβ1–38, Aβ42, Aβ1–37 and Aβ1–39 were detected, albeit with relatively low signal intensities"
same,Array: epitope identified in this study on microarrays,[2],3–7
same,preference for Aβ1–42 aggregation state,[5],"a certain, but not absolute preference for aggregated forms of Aβ1–42 over monomeric and low-n oligomeric forms"
same,Aβ variants detected on CIEF-immunoassay,[6],"recognized Aβ1–40, Aβ1–42, Aβ3–40 (pI approximately 5.97) Aβ-3–40 (aka. APP669–711),phosphorylated pSer8-Aβ1–40; also recorded: detected Aβ1–40 (pI 5.31), Aβ2–40 (pI 5.98), Aβ3–40 (pI 5.97), Aβ−3–40 (pI 6.04), Aβ1–42 (pI approx. 5.3) and pSer8Aβ1–40 (amide) (pI 5.13–5.14)"
B2,ARIA-E frequency,"[7]; cross-study comparison, ref [38]",13%
same,"clinical outcome, Clarity AD","[7]; ref [45],[46]",positive results in the Clarity AD trial
same,Array: epitope identified in this study on microarrays,[2],3–7
same,binding to aggregated versus monomeric Aβ,"Aβ; ref [38],[40],[41],[83]",strong preference for Aβ protofibrils and to bind Aβ monomers only weakly; also recorded: preferably bind specific aggregated forms of Aβ over monomeric forms
same,preferential binding to fibrillar Aβ,Aβ; ref [46],preferential binding to fibrillar Aβ aggregates
